Laboratory results published in article PMC5389554 (Nucleic Acids Research, 2017).

Experiments:
non-reducing SDS-PAGE = molecular target: the molecule itself; test: non-reducing SDS-PAGE
[1] = molecular target: the molecule itself; test: non-reducing SDS-PAGE with immunoblot
cross-linking = molecular target: the molecule itself; test: cross-linking

B1: GST-CNBP (recombinant cellular nucleic acid-binding protein with GST tag) (natural protein, mouse, UniProt P53996 1-178, looked up)
chain: MSSNECFKCGRSGHWARECPTGGGRGRGMRSRGRGGFTSDRGFQFVSSSLPDICYRCGESGHLAKDCDLQEDEACYNCGRGGHIAKDCKEPKREREQCCYNCGKPGHLARDCDHADEQKCYSCGEFGHIQKDCTKVKCYRCGETGHVAINCSKTSEVNCYRCGESGHLARECTIEATA
stoichiometry N (non-reducing SDS-PAGE): 2

B2: CNBP-HA (wild type) (natural protein, mouse, UniProt P53996 1-178, looked up)
chain: B1 chain
stoichiometry N [1]: 2

B3: endogenous CNBP (cellular nucleic acid-binding protein) (natural protein, mouse (endogenous in RAW 264.7), UniProt P53996 1-178, looked up)
chain: B1 chain
stoichiometry N (cross-linking): 2
